Tested on: Botrytis
Test: Open-air field trials on grape (Example 4.2, AUDPC of % disease severity)
Assay type: in vivo, Botrytis cinerea
Settings: for Disease compared with the biological standard program of Serenade and JMS Stylet Oil (AUDPC) / Disease caused by Botrytis compared to untreated check (AUDPC): both trials; for Disease caused by Botrytis compared to untreated check (AUDPC): FIGS. 7 and 8; for Disease compared with the chemical program of Miravis Prime and Switch (AUDPC): second trial
Procedure: RNAi compositions, each containing a dsRNA comprising a trigger sequence (GS730) described herein, were evaluated for ability to control Botrytis on grape in open-air field trials. Non-formulated and formulated compositions were tested. Non-formulated compositions were tank mixed with water and Silwet L-77 0.1% v/v. Formulated samples were formulated with RO water, propylene glycol, a linear alcohol ethoxylate, a lignosulfanate, sodium citrate dihydate, a polyacrylic acid polymer, two biocide compositions, anhydrous citric acid, and an antifoam, all of which are readily commercially available. Non-formulated and formulated GS 730 were each tested at concentrations of 50 g ai/ha and 100 g ai/ha. A standard biological program of Serenade 9.4 I/ha alternating with JMS Sylet Oil 1% v/v was used as a positive control. Chemical standards, Miravis Prime 392 g ai/ha ai and Switch 610 g ai/ha were applied to a second positive control group in alternating applications. An untreated group was used as a negative control
Positive controls were applied to grape plants at bloom, bunch closure, veraison, and 7-10 days before harvest. Test applications were made on the same timing as the positive controls with additional applications seven days after bloom, bunch closure, veraison, and 7-10 days before harvest. Disease state was evaluated over the course of three to four weeks, starting two days after the last application (Slide 3) or 18 days […] the last application. Percent Disease Severity was assessed and AUDPC was calculated in the same manner as noted in Example 4.1.

[1] = non-formulated, 50 and 100 g ai/ha

B1: GS730: dsRNA trigger targeting B. cinerea Bcsec15 (XM_024692064.1); trigger SEQ ID NO 19, RNA 31, reverse complement 43 (nucleic acid, listed as Botrytis cinerea)
sense: UCAACGCAGUCUCCAAAGCUUUGGAUGAAUUCGAUAACCCGGAUGUUAUUCUGCAAACCAAGAAUGUGAUAGCAUUGUUCAUCCAAACAAUGGAGGGUUGGGGAUAUUCAGUUGCCAUAUUAGAUGCUUAUGUGCUUAAGCUUUUCUAUAGAUAUGCUGAUUUGUUAAAACGGAAAUUCAGCACAGAUUUUCAACAGAUUGUGUCUACCGAUGAAUACAUGCCUAUGCCUGUCAAUAGCGAAGAAGACUUUGAUAAAAUCAUUCAAGUCAGUUGGUAUGUUCCGGACAGACCGAAAGAAGAAUACACAUUCCCCGGUGUAUUACCAUUCUCCCAGAUGUACCCAAUGUGCUGUAUAGAUAUCAGAAAUUUCCUGAAUCGAUUCUACUUCAUAAUGGAUGAUCAUUUUCAACAGCCAAACAUUAUUGAUGAGACACUUAAGAAGUCGAUAGAUGAGCUUCUGUCUGAGGAUAUUUGUGA
antisense: UCACAAAUAUCCUCAGACAGAAGCUCAUCUAUCGACUUCUUAAGUGUCUCAUCAAUAAUGUUUGGCUGUUGAAAAUGAUCAUCCAUUAUGAAGUAGAAUCGAUUCAGGAAAUUUCUGAUAUCUAUACAGCACAUUGGGUACAUCUGGGAGAAUGGUAAUACACCGGGGAAUGUGUAUUCUUCUUUCGGUCUGUCCGGAACAUACCAACUGACUUGAAUGAUUUUAUCAAAGUCUUCUUCGCUAUUGACAGGCAUAGGCAUGUAUUCAUCGGUAGACACAAUCUGUUGAAAAUCUGUGCUGAAUUUCCGUUUUAACAAAUCAGCAUAUCUAUAGAAAAGCUUAAGCACAUAAGCAUCUAAUAUGGCAACUGAAUAUCCCCAACCCUCCAUUGUUUGGAUGAACAAUGCUAUCACAUUCUUGGUUUGCAGAAUAACAUCCGGGUUAUCGAAUUCAUCCAAAGCUUUGGAGACUGCGUUGA
Disease compared with the biological standard program of Serenade and JMS Stylet Oil (AUDPC) (formulated, 100 g ai/ha): not statistically different
Disease caused by Botrytis compared to untreated check (AUDPC) (formulated, 100 g ai/ha): significantly reduced disease
Disease compared with the chemical program of Miravis Prime and Switch (AUDPC) (formulated, 100 g ai/ha): comparable
Disease compared with the biological standard program of Serenade and JMS Stylet Oil (AUDPC) [1]: not statistically different
Disease caused by Botrytis compared to untreated check (AUDPC) [1]: significantly reduced disease
Disease compared with the chemical program of Miravis Prime and Switch (AUDPC) [1]: comparable

— US20230189818A1, “RNA-BASED CONTROL OF BOTRYTIS” (priority 2021, published 2023)
